The target of data set [1] is HERV-K Env-green fluorescent protein (GFP) fusion protein in transfected HEK293T cells (human endogenous retrovirus-K (HERV-K)). Description: flow cytometry on fixed HEK293T cells transfected with Env-GFP; G10, anti-Myc antibody, Alexa Fluor 647 secondary antibody. For orientation: Flow cytometry measures light scatter and fluorescence of single cells or particles in a stream.

The target in data set [2] is T1, purified recombinant HERV-K Env protein (human endogenous retrovirus-K (HERV-K)).
T1 chain: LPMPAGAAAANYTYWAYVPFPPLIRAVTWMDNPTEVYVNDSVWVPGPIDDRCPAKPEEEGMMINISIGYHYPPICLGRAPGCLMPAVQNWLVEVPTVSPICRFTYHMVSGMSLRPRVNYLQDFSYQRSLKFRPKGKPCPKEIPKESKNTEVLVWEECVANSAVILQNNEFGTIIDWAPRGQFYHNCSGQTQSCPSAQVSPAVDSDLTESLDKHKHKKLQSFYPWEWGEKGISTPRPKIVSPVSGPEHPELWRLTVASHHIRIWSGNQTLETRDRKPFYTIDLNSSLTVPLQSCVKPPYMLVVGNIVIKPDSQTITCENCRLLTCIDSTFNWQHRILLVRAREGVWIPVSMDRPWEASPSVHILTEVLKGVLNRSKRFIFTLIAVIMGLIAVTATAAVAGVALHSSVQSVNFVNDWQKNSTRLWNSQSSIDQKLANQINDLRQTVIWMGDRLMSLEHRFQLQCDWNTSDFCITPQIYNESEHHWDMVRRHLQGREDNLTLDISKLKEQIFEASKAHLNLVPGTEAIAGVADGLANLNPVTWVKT
The data set can be described thus: protein thermal shift assay (DSF); HERV-K Env with 1-3 nM G10.

B1: HERV-K Env nanobody G10 (VHH)
VHH: EVQLQASGGGFVQPGGSLRLSCAASGSTWYLDAMGWFRQAPGKEREFVSAISDLDDTARYYADSVKGRFTISRDNSKNTVYLQMNSLRAEDTATYYCAYLGATMAETYWGQGTQVTVSS
notes: Recombinant protein made in E. coli; From Hybrigenics antibody phage display; also called nanobody clone G10; G10 nanobody
The molecule B1 showed a % of cells in the DP quadrant (GFP and Alexa Fluor 647) in data set [1] of 39.4%. Also, in data set [2], the “shift in Tm” value is roughly 2.5 ° C.

The values are drawn from US20250276015A1 (US Dept. of Health and Human Services, published 2025).
